B1: Fab R2C22 (Fab, V domains shown)
VH: EVQLVESGGGLVQPGGSLRLSCAASGFNIYSSYMHWVRQAPGKGLEWVASIYSSYGSTYYADSVKGRFTISADTSKNTAYLQMNSLRAEDTAVYYCARHSRDGWQHWFGNWAGLHSYGMDYWGQGTLVTVSS
VL: DIQMTQSPSSLSASVGDRVTITCRASQSVSSAVAWYQQKPGKAPKLLIYSASSLYSGVPSRFSGSRSGTDFTLTISSLQPEDFATYYCQQYYHYGYYLITFGQGTKVEIKR
B2: Fab R3C8 (Fab, V domains shown)
VH: EVQLVESGGGLVQPGGSLRLSCAASGFNFSSSSIHWVRQAPGKGLEWVASIYPSYSYTYYADSVKGRFTISADTSKNTAYLQMNSLRAEDTAVYYCARHCLLRSRRCEMSTKTRELNVYRYAMDYWGQGTLVTVSS
VL: B1 VL with Y91W, Y92P, H93V, Y94G, G95S, Y96S, L98P
B3: Fab R2C6 (Fab, V domains shown)
VH: EVQLVESGGGLVQPGGSLRLSCAASGFNIYYSSMHWVRQAPGKGLEWVAYISPYYGYTSYADSVKGRFTISADTSKNTAYLQMNSLRAEDTAVYYCARKDLLKTNRLTTRYKKSVSVGYGMDYWGQGTLVTVSS
VL: DIQMTQSPSSLSASVGDRVTITCRASQSVSSAVAWYQQKPGKAPKLLIYSASSLYSGVPSRFSGSRSGTDFTLTISSLQPEDFATYYCQQYVYPPFTFGQGTKVEIKR
B4: Fab R3C10 (Fab, V domains shown)
VH: EVQLVESGGGLVQPGGSLRLSCAASGFNIYYSSMHWVRQAPGKGLEWVASISPYYGYTYYADSVKGRFTISADTSKNTAYLQMNSLRAEDTAVYYCARGSLRRDFNLVVRSSWDIRSNYVMDYWGQGTLVTVSS
VL: B3 VL with Y91S, V92W, Y93P, P94Y, F96I
B5: Fab R2C12 (Fab, V domains shown)
VH: EVQLVESGGGLVQPGGSLRLSCAASGFNISSSYMHWVRQAPGKGLEWVASIYSYSSYTYYADSVKGRFTISADTSKNTAYLQMNSLRAEDTAVYYCARSDSWVQGRDFCYYSAWVGYGMDYWGQGTLVTVSS
VL: B3 VL with Y91G, V92Y, P94A, P95L
B6: Fab R2C8 (Fab, V domains shown)
VH: EVQLVESGGGLVQPGGSLRLSCAASGFNISSSSIHWVRQAPGKGLEWVASIYPYYGSTSYADSVKGRFTISADTSKNTAYLQMNSLRAEDTAVYYCARPGRHLQTTFKGYQFKYSRYIYAMDYWGQGTLVTVSS
VL: DIQMTQSPSSLSASVGDRVTITCRASQSVSSAVAWYQQKPGKAPKLLIYSASSLYSGVPSRFSGSRSGTDFTLTISSLQPEDFATYYCQQWGHHGYLITFGQGTKVEIKR
B7: Fab R2C11 (Fab, V domains shown)
VH: EVQLVESGGGLVQPGGSLRLSCAASGFNLYYSSIHWVRQAPGKGLEWVAYIYPSYSYTYYADSVKGRFTISADTSKNTAYLQMNSLRAEDTAVYYCARRYGSDVFCVGCFFGVRLSYVMDYWGQGTLVTVSS
VL: B6 VL with W91Y, G92V, H93S, H94S, Y96S
B8: Fab R3C13 (Fab, V domains shown)
VH: EVQLVESGGGLVQPGGSLRLSCAASGFNIYYSYMHWVRQAPGKGLEWVASISSYSGSTSYADSVKGRFTISADTSKNTAYLQMNSLRAEDTAVYYCARWLRVSLKSGVYKVLARAVELDEYVMDYWGQGTLVTVSS
VL: B6 VL with W91S, H93Y, H94Y, G95A, Y96W, L97P
B9: Fab R2C4 (Fab, V domains shown)
VH: EVQLVESGGGLVQPGGSLRLSCAASGFNLSYYYMHWVRQAPGKGLEWVAYISSYSGYTYYADSVKGRFTISADTSKNTAYLQMNSLRAEDTAVYYCARGWRVYADRGHVRGYFRVWYGMDYWGQGTLVTVSS
VL: DIQMTQSPSSLSASVGDRVTITCRASQSVSSAVAWYQQKPGKAPKLLIYSASSLYSGVPSRFSGSRSGTDFTLTISSLQPEDFATYYCQQGAGLITFGQGTKVEIKR
B10: Fab R3C15 (Fab, V domains shown)
VH: EVQLVESGGGLVQPGGSLRLSCAASGFNISYSYMHWVRQAPGKGLEWVASISPYSGYTYYADSVKGRFTISADTSKNTAYLQMNSLRAEDTAVYYCARGVRGNKLRLLSSRSGRMESHYVMDYWGQGTLVTVSS
VL: B9 VL with G91A, A92G, G93S, I95F
B11: Fab R2C16 (Fab, V domains shown)
VH: EVQLVESGGGLVQPGGSLRLSCAASGFNIYSYSMHWVRQAPGKGLEWVASISSYYGYTYYADSVKGRFTISADTSKNTAYLQMNSLRAEDTAVYYCARFKNADFAAGGQWSKMLIARMYAMDYWGQGTLVTVSS
VL: B9 VL with G91Y, A92Y, G93S
B12: Fab R2C9 (Fab, V domains shown)
VH: EVQLVESGGGLVQPGGSLRLSCAASGFNIYSYSMHWVRQAPGKGLEWVAYIYPYSGYTYYADSVKGRFTISADTSKNTAYLQMNSLRAEDTAVYYCARVLNIFMDVGAARFPGLVRYGMDYWGQGTLVTVSS
VL: DIQMTQSPSSLSASVGDRVTITCRAGQDVSSAVAWYQQKPGKAPKLLIYSASTLHSGVPSRFSGSRSGTDFTLTISSLQPEDFATYYCQQSGPYSLFTFGQGTKVEIKR
B13: Fab 2H9 (Fab, V domains shown)
VH: EVQLVESGGGLVQPGGSLRLSCAASGFNIYYSSMHWVRQAPGKGLEWVASIYPYSGYTYYADSVKGRFTISADTSKNTAYLQMNSLRAEDTAVYYCARGTSFQVRCVLYRLLSPGRYVMDYWGQGTLVTVSS
VL: B12 VL with G26S, D28S, T53S, H55Y, P93Y, Y94S, S95Y, L96P
notes: not shown: His tag at the C-terminus of the heavy chain
B14: Fab 2E4 (Fab, V domains shown)
VH: EVQLVESGGGLVQPGGSLRLSCAASGFNLSYSYIHWVRQAPGKGLEWVAYISSSSGYTYYADSVKGRFTISADTSKNTAYLQMNSLRAEDTAVYYCARSARLRLRGNHDRRRSKSVYYRPYVMDYWGQGTLVTVSS
VL: B12 VL with G26S, D28S, T53S, H55Y, G92S, Y94S, S95F, L96P, F97I
notes: as for B13

Substitutions are numbered along the chain they refer to.

The target in the first test is T1, catalytic domain of MMP-14 (cdMMP-14) (human, UniProt P50281 114-287, limits assumed, biotinylated (Sulfo-NHS-LC-Biotin) where immobilised via streptavidin). As to the kind of experiment: cell-based or functional assay.
On to B1, for which the “Inhibition potency (FRET IC50)” value came to 75 nM. For the molecule B2, the “Inhibition potency (FRET IC50)” value is 5400 nM.

In the case of B3, the “Inhibition potency (FRET IC50)” value is 2400 nM. On the same count and under the same terms, in the case of B4 it was 1000 nM. Same read-out and setting: under B5 stands 150 nM; under B6, 1200 nM; under B7, 600 nM.

On to B8, for which the “Inhibition potency (FRET IC50)” value was determined as 2000 nM. On the same count and under the same terms, under B9 stands 1500 nM. For B10, the “Inhibition potency (FRET IC50)” value came to 170 nM. The same measure, in the same setting: in the case of B11 it was 5500 nM. In the case of B12, the “Inhibition potency (FRET IC50)” value turned out to be 80 nM.

The target of a further test is T1, catalytic domain of MMP-14 (cdMMP-14). As to the kind of experiment: ELISA, Fab titrated on immobilised MMP-14 catalytic domain, anti-Fab-HRP.
Procedure: Bound Fabs were detected using the anti-Fab-HRP conjugate. The half-maximal effective concentration (EC₅₀) was calculated from a four-parametric logistic curve-fitting analysis.
On to B13, for which the EC50 was 120 nM. Same read-out and setting: in the case of B14 it was 840 nM.

The target is the same in the next test. Put plainly: ELISA, Fab titrated on immobilised biotin-cdMMP-14, anti-Fab-HRP.
Take B1: a half-maximal response (EC50) required 540 nM. On the same count and under the same terms, under B2 stands 1300 nM. With B3, the response was half-maximal at 2400 nM (EC50). Same read-out and setting: in the case of B4 it was 970 nM; in that of B5, 150 nM. Still for that read-out and setting: under B6 stands 1200 nM; under B7, 750 nM; under B8, 2000 nM.

On to B9, for which the EC50 worked out at 10000 nM.

B10 yielded an EC50 of 57.5 nM. B11: it took 1800 nM to reach a half-maximal effect (EC50). The same measure, in the same setting: in the case of B12 it was 657 nM.

For the origin of these results see US20190185581A1 (University of California, published 2019).
